Assay: yeast display, Sf9 membrane polyspecificity reagent, FACS + sequencing; frameworks hold sequencing errors
Procedure, shortened: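 Synthetic nanobody libraries on Saccharomyces cerevisiae BJ5465 were galactose-induced for 36–48 hours, stained 1 hour at 4 °C with 10% biotinylated, detergent-solubilized Sf9 membrane reagent and enriched on streptavidin microbeads. FACS then separated cells into low and high (top ~1%) gates by anti-HA (expression) and streptavidin (reagent binding) fluorescence. Genes were colony-PCR amplified, MiSeq 2 × 250 sequenced and CDR-length filtered. A clone's polyreactivity label is that of its gate of origin.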

QVQLVESGGGLVQAGGSLRLSCAASGIFEWNAMGWYRQAPRTERELVAAISNSGGSTYYADSVKGRFTISRDNAKNTVYLQMNSLKPEDNAVYYCAARSKTPAWWYWNSYYIRDYWGQATQVTVSS
polyreactivity (PSR sort gate): high polyreactivity

QVQLVESGGGLVQAGGSLRLSCAASGLTFRYYAMGWYRQAPGKERELVAAITASVGSTYYADSVKGRFTISRDNAKNTVYLQMNSLKPEDTAVYYCAAEGTPGPGGGYYWGQGTQVTVSS
polyreactivity (PSR sort gate): low polyreactivity

QVQLVESGGGLVQAGGSLRLSCAASGSSFTYYTMGWYRQAPAKERELVAAISWSGGRTYYADSVTGRFTISRDNAKNTVYLQMNSLKPEDTAVYYCAAGPAPGHDSWGQGTQVTESS
polyreactivity (PSR sort gate): high polyreactivity

QVQLVESGGVLGQAGVSLRLSCAASGRIFDGNTMGWYIQAPGQEREFVAAISGGGSTYYADSVKGRFTISRDNAKNTVYLQMNSLKPEDTAVYYCAATTGPVPLKGDYWGQGTQVTVSS
polyreactivity (PSR sort gate): low polyreactivity

QVQLVESGGGLVQAGGSLRLSCAASGNIFRYNAMGWYRQAPGKERELVAAISSGGSTYYADSVKGRFTISRDNAKNTVYLQMNSLKPEDTAVYYCNRRRWLWQTARGDYWGQGTQVTVSS
polyreactivity (PSR sort gate): high polyreactivity

QVQLVESGGGLVQAGGSLRLSCAASGSTLGYYVMGWYRQAPGKERELVAAITGGGSTDYADSVKGRFTISRDNAKNTVYLQMNSLKPEDTAVDYCAAERTRTGQLFCWGPIYEYWGQGTQVTVSS
polyreactivity (PSR sort gate): low polyreactivity

QVQLVESGVGLVQAGGSLRLSCAASGYTIDWYTMGWYRQAPGKERELVAAISASGVRTYYADSVKGRFTISRDNAKNTVYLQMNSLKPEDTGVYYCNRVYSTSRITQYEFDYWGQGTQVTLSS
polyreactivity (PSR sort gate): low polyreactivity

QVQLVESGGGLVQAGGSLRLSCAASGSTFAANAMGWYRQAPGKERELVAAITSSGGSTFYADSVKGRFTISRDNAKNTVYLQMNSLKPEDTAVYYCNKDIERYVRIYDSWGQGTQVTVSS
polyreactivity (PSR sort gate): low polyreactivity

QVQLVESGGGLVQAGGSLRLSCAASGSIFPTYAMGWYRQAPGKERELVAAIRSGSNTYYADSVKGRFTISRDNAKNTVYLQMNSLKPEDTAVYYCNVGPQRKYPGRRTVPFGYWGQGTQVTVSS
polyreactivity (PSR sort gate): low polyreactivity

QVQLVESGGGLVQAGGSLRLSCAASGFIRTYAMGWYRQAPGKERELVAAITSSGGRTYYADSVKGRFTISRDNAKNTVYLQMNSLKPEDTAVYYCAAGLGRYLRYNYWGQGTQVTVSS
polyreactivity (PSR sort gate): high polyreactivity

QVQLVESGGGLVQAGGSLRLSCAASGLTFPANVMGWYRQAPGKERELVAAISRSGGTTYYADSVKGRFTISRDNAKNTVYLQMNILKPEDTAVYYCAAYQVSYFGGSMDYWGQGTQVTVSS
polyreactivity (PSR sort gate): high polyreactivity

QVQLVESGGCLVQAGGSLRLSCAASGITFRYYPMGWYRQAPGKERELVATISTNGGTTYYADSVKGRFTISRDNAKNTVYLQMNSLKPEDTAVYYCNRKIYVSSARYPSEYGYWGQGTQVTVSS
polyreactivity (PSR sort gate): high polyreactivity

QVQLVESGGGLVQAGGSLRLSCAASGRIFYRYAMGWYRQAPGKERELVAAITGSGGSTYYADSVKGRFTISRDNAKNTVYLQMNSLKPEDTAVYYCNAVYARYGSQGYEYWGQGTQVTVSS
polyreactivity (PSR sort gate): high polyreactivity

QDQLVDSGGGLVQAGGSLRLSCAASGRTFYTYAMGWYRQAPGKEREFVARISKRGGGTYYADSVKGRFTISRENAKNTVDLQMNSLIPEDTAVYYCNAGVPSAMDYWGQGTQLTVSS
polyreactivity (PSR sort gate): high polyreactivity

QGQLVESGGGLVQAGGSLRLSCAASGRTFRGNTMGWYRQAPGKERELVATISSRSSSTYYADSVKGRFTISRDNAKNTVYLQMHSLKPEDTAVYYCAVTNPLVRSGYSRYFGRYDYWGQGTQVTVSS
polyreactivity (PSR sort gate): high polyreactivity

QVQLVESGGGLVQAGGSLRLRCAASGSIFFFYAMGWYSQARGKEREFVAGITYSGGITYYADSVKGRFTISRDNAKNTDYLQMNSLKPEDTAVYFCDYGGGVYQYGYWGQGTQVTVSS
polyreactivity (PSR sort gate): low polyreactivity

QVQLVESGGGLVQAGGSLRLSCAASGRIFQQYALGWYRQAPGKEREWVAVITYRAGRTHYADSVKGRFTISRDNAKNTVYLQMNSLKPEDTAVYYCAAGRYYAVWQSISGFDSWGQGTQVTVSS
polyreactivity (PSR sort gate): low polyreactivity

QVQLVESGGGLVQAGGSLRLSCAASGSTSRGNAMAWYRKSPGKERELVATISQSGGNTFYADSVKGRFTISLDNAKNTVYLQMNSLNPEDTAVYYCAAGRYWFAWYDYWGQGTQVTVSS
polyreactivity (PSR sort gate): high polyreactivity

QVQLVESGGGLVQAGGSLRISCAASGRIFGENAMGWYRQAPGKERELVAAIRFSSGSTYYADSVKGRFTISRDNAKNTVYLQMNSLKPEDTAVYYCNADGWYALYEWLAVSGYYWGQGTQVTVSS
polyreactivity (PSR sort gate): low polyreactivity

QVQLVESGGGLVQAGGSLRLSCAASGRTFHYYAMGWYRQAPGKERELVAAITSSGGSTYYADSVKGRFTISRDNANNTVYLQMNSLKPEDTAVYYFNAYSSYIKYDYWGQGTQVTVSS
polyreactivity (PSR sort gate): high polyreactivity

QVQLVESGAGLVQAGGSLLLSCAASAFIFTPYTKGWYRQAPGKETELVAAITDGSSTYYADSVKRRFTISRDNAQNTVYVQMNSLKPEDTAVYYCNADTLTTTRRFNPYDYRGQGTQVTVSS
polyreactivity (PSR sort gate): low polyreactivity

QVQLVESGGGLVQSGGSLRLSCAASGSILKFNAMVWYRQAPGKERELVAAITRGTNTYYADSVKGRFTISRDNAKNTVYLQMNSLKPEDTAVYYCAARLPYNAIGYYYWGQGTQVTVSS
polyreactivity (PSR sort gate): low polyreactivity

QVQLVESGGGLVQAGGSLRLSCAASGRTFYDYTMGRYRQAPGKERELVAAISQRGGSTYYADSVKGRFTISRDNAKNTVYLQMNSLKPEDTAVYYCAARTSYSGNKYYYWGQGTQVTVSS
polyreactivity (PSR sort gate): high polyreactivity

QVQLVESGGGLVQAGGSLRLSCAASGITFYIYAMGWYRQAPGKERELVAAITWGGDGSTRYADSVKGRFTISRDNAKNTVYLQMNSLKPEDTAVYYCAGGSTFVLFDDMDYWGQGTQVTVSS
polyreactivity (PSR sort gate): low polyreactivity

QVQLVESGGGLVQAGGSLRLSCAASGFTFRTNAMGWYRQAPGKERELVAAISTGARTYYADSVKGRFTISRDNAKNTVYLQMNSLKPEDTAVYYCNKVLRRFLSRYDYWGQGTQVTVSS
polyreactivity (PSR sort gate): high polyreactivity

QVQLVESGGGLVQAGGSLRLSCAASGIIFTLYAMGWYRQAPGKERELVATISTGGGTYYADSVKGRFTISRDNAKNTVYLQMNSLKPEDTAVYYCNAVKLLGTRGYGYWGQGTQVTVSS
polyreactivity (PSR sort gate): high polyreactivity

QVQLVESGGGLVQAGGSLRLSCAASGLIFRTYAMGWNRQAPGKERELVAAIRGGGSTNYADSVNGRFTISRDNAKNTVYLQMNSLKPEDTAVYYCAALVYAVTRRRVQGYGYDYWGQGTQVTVSS
polyreactivity (PSR sort gate): low polyreactivity

QVQLVESGGGLVQAGGSLRLSCAASGRIIRRYAMGWYRQAPGKERELVAAISRSGGSTYYADSVKGRFTISRDNAKNTVFLQMKRLKPEDTAVYYCNRRYITYNYDYWGQVTQVTVSS
polyreactivity (PSR sort gate): high polyreactivity

QVQHVESGGGLVQAGGSLRLSCAASGFIFSNNAMGRYRQAPGKERELVAAITSSGGRTYYADSVKGRFTISRDNAKNTVYLQMNSLKPEDTAVYYCAAVWRTSVWTKYGYWGQGTQVTVSS
polyreactivity (PSR sort gate): high polyreactivity

QVQLVESGGVLVQAGGSLRLSCAASGIIFYRNAMGWYRQAPGKERELVAAITSSGGRTYYADSVKGRFTISRDNAKNTVYLQMNSLKPEDTAVYYCAATRLYWKIFYGDGDYWGQGTQVTVSS
polyreactivity (PSR sort gate): high polyreactivity

QVQLVESGAGLVQAGGSLRLSCAASGSTFTLNAMGWYRQAPGKERELVADISWSSGRTYYADSVKGRFTISRDNAKNTVDLQMNSLNPEDTAVYYCATDDFWIVKFYAYYPEFDYWGQVTQVTVSS
polyreactivity (PSR sort gate): low polyreactivity

QVQLVESGGGLVQAGGSLRLSCAASGFIFPRYAMGWYRQAPGKERELVADISYSGGSTYYADSVKGRFTISRDNAKNTVYLQMNSLKPEDTAVYRPYAFGYWGQGTQVTVSS
polyreactivity (PSR sort gate): high polyreactivity

QVQLVESGGGLVQAGGSLRLSCAASGFIFIKYAMGWYRQAPGKERELVAAISSSGGSTYYADSVKGRFTISRDNAKNTVYLQMNSLKPEDTAVYYCAARTYRGLAYDYWGQGTQVTVSS
polyreactivity (PSR sort gate): high polyreactivity

QVQLVESGGGLVQAGGSLRLSCAASGSTFTYNTMGWYRQAPGKERELVAAISWGGGGTYYADSVKGRFTISRDNAKNSVYLQMNSLKRVDTAVYYCKADPWWDYGTFDYWGQGTQVTVSS
polyreactivity (PSR sort gate): low polyreactivity

QVQLVESGGGLVQAGGSLRLSCAASGFTFYYYAMGWYRQAPGKERELVAAITSSGDSTFYADSVKGRFTISRDNAKNTVSLQMNSLKPEDTAVYYCAADRFQGRDDYWGQGTQGTVSS
polyreactivity (PSR sort gate): high polyreactivity

QVQLVESGGGLVQAGGSLSLSCAASGSTFAYYAMGWYRQAPGKERELVAGITWTGGSTYYADSVKGRFTISRDNAKHTDYLQMNSLKPEDTAVYYCAVTYPYGYEYDHWGQGSQVTVSS
polyreactivity (PSR sort gate): low polyreactivity

QVQLVESGGGLVQAGCSLRLSCAASGLTSTANAMGWYRQAPGKERELVAGITTGGSTYYADSVKGRFTISRDNAKNTVYLQMISLKPEDTAVYYCNAPTYADTTYDYWGQGTQVTVSS
polyreactivity (PSR sort gate): low polyreactivity

QVQLVESGGGLVQAGGSLRISCAASGSTFFRYAMGWYRQAPGKERELVAAIYKSGASTYYADSVKGRFTISRDNPKNSVYLQMNSLKPEDTGVYYCNADVKNSSAREWQYGYDYWGQGTQVTVSS
polyreactivity (PSR sort gate): low polyreactivity

QVQLVESGGGLVQAGGSLRLSCTASGRTLYNYTMGWYRQAPGKERELVAAISRGGGSTYYADSVKGRFTISRDNAKNTVYLQMNSLKQEDTAVYYCATDQTYPYCGGGDYWGQGTQVTVSS
polyreactivity (PSR sort gate): low polyreactivity

QVQLVESGGGLVQAGGSLRLSCAASGRILDRYAMGWYRQAPGKERELVAVITDRGGNTYYADSVKGRFTISRDNAKNTVYLQMNSLKPEDTAVYYCAVYAYWRFRTYYYWGQGTQVTVSS
polyreactivity (PSR sort gate): high polyreactivity

QVQLVESGGGLVQSGGSLRLSCAASGRTYDSYAMGWYRPAPGKERELVAVISRSGRTYYADSVKGRFTISRDNAKNTVYLQMNSLKPEDTAVYYCAAKWFRTWSGYWGQGSQVTVSS
polyreactivity (PSR sort gate): high polyreactivity

QVQLVQSGGVLVQAGGSLRLSCAASGFIFNTYAMGWYRPAPGKERELVAAIDGRGGTTYYADSVKGRFTISRDYAKNTVYLQMHSLKPEDTAVYYCAARYQRLGIRYGYWGQGTQVTVSS
polyreactivity (PSR sort gate): high polyreactivity

QVQLVESGGGLVQAGGSLRLSSAASGSTFTVNGMGWYSQAPGKERELVAAIDGGDGSTYYADSVKGRFTISRDNAKNTVYLQMTSLKPEDTAVYYCAADPPGFTQYGYWGQGTQVTVSS
polyreactivity (PSR sort gate): low polyreactivity
